Reference: PMC7672075
Where no end group is shown, it is not given here. [ ]: non-standard residue; d: D form. pS = N[C@@H](COP(=O)(O)O)C(=O)O

What follows are binders tested against TRF2, endogenous (U2OS) (human (endogenous in U2OS)) (UniProt Q15554) (assay: not given).
UniProt Q15554, sequence (Q15554 whole entry): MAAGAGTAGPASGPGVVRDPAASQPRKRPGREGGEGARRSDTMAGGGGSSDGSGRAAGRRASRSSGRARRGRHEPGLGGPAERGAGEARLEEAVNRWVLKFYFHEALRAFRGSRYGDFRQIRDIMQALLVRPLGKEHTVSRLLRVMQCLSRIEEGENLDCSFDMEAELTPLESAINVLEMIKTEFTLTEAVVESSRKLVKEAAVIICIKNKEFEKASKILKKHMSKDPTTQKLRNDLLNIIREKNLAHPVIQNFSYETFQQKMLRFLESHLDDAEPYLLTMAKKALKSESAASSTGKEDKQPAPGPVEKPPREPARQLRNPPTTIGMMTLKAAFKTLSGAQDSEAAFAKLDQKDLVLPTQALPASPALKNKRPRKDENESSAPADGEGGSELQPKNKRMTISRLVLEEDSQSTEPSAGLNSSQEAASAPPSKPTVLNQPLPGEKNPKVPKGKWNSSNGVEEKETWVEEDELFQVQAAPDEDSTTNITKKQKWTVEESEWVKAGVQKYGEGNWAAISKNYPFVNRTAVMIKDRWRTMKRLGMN

percentage of HeLa cells with >5 FLAG-MCPH1 foci at telomeres (immunostaining and telomere PNA-FISH), functional telomeres	Binder
11 % of cells	FLAG-tagged WT MCPH1 (human) (natural protein) MAAPILKDVVAYVEVWSSNGTENYSKTFTTQLVDMGAKVSKTFNKQVTHVIFKDGYQSTWDKAQKRGVKLVSVLWVEKCRTAGAHIDESLFPAANMNEHLSSLIKKKRKCMQPKDFNFKTPENDKRFQKKFEKMAKELQRQKTNLDDDVPILLFESNGSLIYTPTIEINSRHHSAMEKRLQEMKEKRENLSPTSSQMIQQSHDNPSNSLCEAPLNISRDTLCSDEYFAGGLHSSFDDLCGNSGCGNQERKLEGSINDIKSDVCISSLVLKANNIHSSPSFTHLDKSSPQKFLSNLSKEEINLQRNIAGKVVTPDQKQAAGMSQETFEEKYRLSPTLSSTKGHLLIHSRPRSSSVKRKRVSHGSHSPPKEKCKRKRSTRRSIMPRLQLCRSEDRLQHVAGPALEALSCGESSYDDYFSPDNLKERYSENLPPESQLPSSPAQLSCRSLSKKERTSIFEMSDFSCVGKKTRTVDITNFTAKTISSPRKTGNGEGRATSSCVTSAPEEALRCCRQAGKEDACPEGNGFSYTIEDPALPKGHDDDLTPLEGSLEEMKEAVGLKSTQNKGTTSKISNSSEGEAQSEHEPCFIVDCNMETSTEEKENLPGGYSGSVKNRPTRHDVLDDSCDGFKDLIKPHEELKKSGRGKKPTRTLVMTSMPSEKQNVVIQVVDKLKGFSIAPDVCETTTHVLSGKPLRTLNVLLGIARGCWVLSYDWVLWSLELGHWISEEPFELSHHFPAAPLCRSECHLSAGPYRGTLFADQPAMFVSPASSPPVAKLCELVHLCGGRVSQVPRQASIVIGPYSGKKKATVKYLSEKWVLDSITQHKVCAPENYLLSQ
48 % of cells	FLAG-MCPH1^S333A (natural protein) MAAPILKDVVAYVEVWSSNGTENYSKTFTTQLVDMGAKVSKTFNKQVTHVIFKDGYQSTWDKAQKRGVKLVSVLWVEKCRTAGAHIDESLFPAANMNEHLSSLIKKKRKCMQPKDFNFKTPENDKRFQKKFEKMAKELQRQKTNLDDDVPILLFESNGSLIYTPTIEINSRHHSAMEKRLQEMKEKRENLSPTSSQMIQQSHDNPSNSLCEAPLNISRDTLCSDEYFAGGLHSSFDDLCGNSGCGNQERKLEGSINDIKSDVCISSLVLKANNIHSSPSFTHLDKSSPQKFLSNLSKEEINLQRNIAGKVVTPDQKQAAGMSQETFEEKYRLAPTLSSTKGHLLIHSRPRSSSVKRKRVSHGSHSPPKEKCKRKRSTRRSIMPRLQLCRSEDRLQHVAGPALEALSCGESSYDDYFSPDNLKERYSENLPPESQLPSSPAQLSCRSLSKKERTSIFEMSDFSCVGKKTRTVDITNFTAKTISSPRKTGNGEGRATSSCVTSAPEEALRCCRQAGKEDACPEGNGFSYTIEDPALPKGHDDDLTPLEGSLEEMKEAVGLKSTQNKGTTSKISNSSEGEAQSEHEPCFIVDCNMETSTEEKENLPGGYSGSVKNRPTRHDVLDDSCDGFKDLIKPHEELKKSGRGKKPTRTLVMTSMPSEKQNVVIQVVDKLKGFSIAPDVCETTTHVLSGKPLRTLNVLLGIARGCWVLSYDWVLWSLELGHWISEEPFELSHHFPAAPLCRSECHLSAGPYRGTLFADQPAMFVSPASSPPVAKLCELVHLCGGRVSQVPRQASIVIGPYSGKKKATVKYLSEKWVLDSITQHKVCAPENYLLSQ

Each binder was assayed against TRF2^TRFH (TRF Homology domain of human TRF2, residues 42–245) (human) (assay: ITC; MCPH1^TBM peptides at 1.0 mM in the syringe titrated into TRF2^TRFH at 0.1 mM in the sample cell; 20 °C; 25 mM Tris-HCl pH 8.0, 150 mM NaCl).

Kd	Binder
21 µM	SQETFEEKYRLDPTLSSTKGH [MCPH1^TBM peptide S333D, synthetic]
0.24 µM	SQETFEEKYRLSPTLSSTKGH [MCPH1^TBM peptide, wild type, synthetic]
0.16 µM	SQETFEEKYRLAPTLSSTKGH [MCPH1^TBM peptide S333A, synthetic]
14 µM	SQETFEEKYRLEPTLSSTKGH [MCPH1^TBM peptide S333E, synthetic]
24 µM	SQETFEEKYRLSATLSSTKGH [MCPH1^TBM peptide P334A, synthetic]
79 µM	SQETFEEKYRL[pS]PTLSSTKGH (also: phosphoserine at S333, position in peptide not given here) [MCPH1^TBM peptide phosphorylated at S333, synthetic]
